Data published in patent US6746838.

Test system: anti-ras optimised three-finger peptide (F1 +3 Asn) finger 1 helix position +3 S->N (synthetic)
Test: ELISA
Settings: apparent Kd; phage-displayed; equal to wild-type Zif268 DBD; Zn

Question: How did the Kd turn out when “GTGGTGGGCGCCGTCGGTGTGGGCAAG (double strand) [EJ (G12V) mutant H-ras site]” was run?
Answer: Its Kd is 3 nM.
